Assay results as given in publication PMC5063714 (Journal of medicinal chemistry, 2016).
Where two headings read alike, the source gives them in different places. Blank lines part the entries; values can stand above or below the molecule they belong to. Square brackets hold non-standard residues; d marks the D form. Ends that are not written are not given here. * marks the point of attachment. Lys(Me3) = C[N+](C)(C)CCCC[C@H](N)C(=O)O; diethyl = not defined here; Bz = O=C(c1ccccc1)*

What was measured:
Test in all cases: AlphaScreen or HTRF
[1] = biological target: chromodomain of CBX8 (human) (UniProt Q9HC52)
[2] = biological target: chromodomain of CBX8 (human) (UniProt Q9HC52); remark: listed apart in the source
[3] = biological target: T1, chromodomain of CDYL2 (human) (UniProt Q8N8U2)
T1 sequence: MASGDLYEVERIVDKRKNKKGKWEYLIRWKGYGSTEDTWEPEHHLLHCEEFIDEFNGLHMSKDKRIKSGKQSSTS

[4] = biological target: chromodomain of CBX4 (human) (UniProt O00257)
[5] = biological target: chromodomain of CBX7 (human) (UniProt O95931)
chromodomain of CBX5 [6] = biological target: chromodomain of CBX5 (human)
chromodomain of CBX4 [7] = biological target: T2, chromodomain of CBX4 (human, UniProt O00257-1 8-65)
T2 sequence (looked up): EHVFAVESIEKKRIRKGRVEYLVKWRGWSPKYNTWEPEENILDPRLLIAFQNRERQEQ

chromodomain of CDYL2 [8] = biological target: T3, chromodomain of CDYL2 (human, UniProt Q8N8U2 1-75)
T3 sequence (looked up): T1 sequence

chromodomain of CBX7 [9] = biological target: T4, chromodomain of CBX7 (human, UniProt O95931 8-62)
T4 sequence (looked up): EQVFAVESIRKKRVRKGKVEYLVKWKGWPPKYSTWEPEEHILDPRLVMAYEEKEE

chromodomain of CBX4 [10] = biological target: T2, chromodomain of CBX4; remark: listed apart in the source
chromodomain of CDYL2 [11] = biological target: T3, chromodomain of CDYL2; remark: listed apart in the source
chromodomain of CBX7 [12] = biological target: T4, chromodomain of CBX7; remark: listed apart in the source
chromodomain of CBX8 = biological target: T5, chromodomain of CBX8 (human, UniProt Q9HC52 8-61)
T5 sequence (looked up): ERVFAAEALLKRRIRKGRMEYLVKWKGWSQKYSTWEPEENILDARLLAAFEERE

chromodomain of CBX5 [13] = biological target: chromodomain of CBX5 (human); remark: listed apart in the source

chromodomain of CBX5 (human), sequence (Q9UN86 18-75): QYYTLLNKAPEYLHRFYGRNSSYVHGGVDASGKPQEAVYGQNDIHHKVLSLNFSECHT

B1: compound 4 (peptide)
peptide: Bz-AL[Lys(Me3)]S-OMe
SMILES: COC(=O)[C@H](CO)NC(=O)[C@H](CCCC[N+](C)(C)C)NC(=O)[C@H](CC(C)C)NC(=O)[C@H](C)NC(=O)c1ccccc1
IC50 [2]: > 60 µM
IC50 [3]: 16 µM
IC50 [4]: > 60 µM
IC50 [5]: > 60 µM
IC50 (chromodomain of CBX5 [6]): > 60 µM

Molecule: Bz-FAL[Lys(Me3)]S-OMe [compound 5]
IC50 (chromodomain of CBX4 [7]): 6.9 µM
IC50 (chromodomain of CDYL2 [8]): 0.57 µM
IC50 (chromodomain of CBX7 [9]): 2.6 µM
IC50 (chromodomain of CBX5 [6]): 49 µM

Molecule: {4‑tBu‑Bz}-FVLK(diethyl)S-OMe (reading uncertain) [compound 43]
IC50 (chromodomain of CBX4 [10]): 7.9 µM
IC50 (chromodomain of CDYL2 [11]): 0.75 µM
IC50 (chromodomain of CBX7 [12]): 3.1 µM
IC50 (chromodomain of CBX8): 0.7 µM
IC50 (chromodomain of CBX5 [13]): > 60 µM

The next lines start with the values.

IC50 [1]: 1.3 µM
Molecule: compound 1 (UNC3866) (peptide)

IC50 [2]: > 60 µM
IC50 [3]: 37 µM
IC50 [4]: > 60 µM
IC50 [5]: > 60 µM
IC50 (chromodomain of CBX5 [6]): > 60 µM
Molecule: Bz-FAL[Lys(Me3)] (also: C-terminal R2 = -H in place of -CO-Ser-OMe (no Ser)) [compound 7]
